Laboratory results published in patent US20140287434.

Assays:
[1] = tested on: Lck peptide substrate (YIYGSFK) attached to the carboxy-terminus of the Itk SH2 domain

Sequence of FLAG-tagged Btk full-length enzyme (Q06187 whole entry): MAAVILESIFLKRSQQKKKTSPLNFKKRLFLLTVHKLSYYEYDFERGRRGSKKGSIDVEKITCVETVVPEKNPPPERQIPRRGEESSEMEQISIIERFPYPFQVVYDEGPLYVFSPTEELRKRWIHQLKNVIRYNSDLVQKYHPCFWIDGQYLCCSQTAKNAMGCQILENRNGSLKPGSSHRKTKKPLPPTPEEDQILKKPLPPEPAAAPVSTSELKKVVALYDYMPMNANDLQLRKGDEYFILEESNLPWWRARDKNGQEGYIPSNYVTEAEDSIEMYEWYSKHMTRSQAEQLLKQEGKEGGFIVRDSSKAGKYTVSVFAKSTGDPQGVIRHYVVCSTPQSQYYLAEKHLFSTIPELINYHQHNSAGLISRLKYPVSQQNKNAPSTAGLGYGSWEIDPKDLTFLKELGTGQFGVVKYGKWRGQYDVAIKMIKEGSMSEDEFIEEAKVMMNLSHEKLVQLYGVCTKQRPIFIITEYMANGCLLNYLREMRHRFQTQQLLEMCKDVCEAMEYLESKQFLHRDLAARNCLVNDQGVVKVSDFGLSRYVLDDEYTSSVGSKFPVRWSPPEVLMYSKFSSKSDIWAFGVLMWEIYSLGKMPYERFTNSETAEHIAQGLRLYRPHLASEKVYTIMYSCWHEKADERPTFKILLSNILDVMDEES

Substance | phosphorylation on Y223 in an in vitro kinase assay (Btk SH3) | phosphorylation on Y223 in an in vitro kinase assay (Btk SH3-SH2 (Btk 32)) | phosphorylation by Lck kinase domain (32P, scintillation counting) against the free peptide YIYGSFK [1]
FLAG-tagged Btk full-length enzyme | are not phosphorylated by the Tec and Btk kinases | only substrates that contain both the site of phosphorylation (Y180 for Itk, Y187 for Tec, Y223 for Btk, and Y783 for PLCγ1) and the adjacent SH2 domain are phosphorylated by the Tec kinases | –
His-tagged wild type Lck kinase domain | – | – | most efficiently phosphorylated when attached to the carboxy-terminus of the SH2 domain and this tethered substrate is a better substrate by an order of magnitude
